Test results as given in paper PMC4813486.
Several values for one entry are separate records, joined by “and”; a condition that tells them apart may be missing. Equal entries are not always repeated.

Key:
[1] = molecular target: full-length β2-microglobulin (UniProt P61769); assay: cross-linking; BS3-d0/d4 1:1, 25 °C, 1 h; gel electrophoresis (NuPAGE); bands digested in-gel with trypsin; LC-MS/MS
[2] = molecular target: full-length β2-microglobulin (UniProt P61769); assay: native MS; ion mobility MS, 30 μM protein, 100 mM ammonium acetate, pH 5 (data not shown)
[3] = molecular target: full-length β2-microglobulin (UniProt P61769); assay: native MS; ion mobility MS, 15 μM protein, 100 mM ammonium acetate, pH 5

**Q.** What does the source list for “full-length β2-microglobulin (from UniProt P61769 21-119) (natural protein)”?
**A.** stoichiometry N [1]: 2 and 3 and 4; stoichiometry N [2]: 3 and 4; stoichiometry N [3]: 2
